Measured values published in the nanobody polyreactivity screen of Harvey et al. (2022).

experiment: yeast display, Sf9 membrane polyspecificity reagent, FACS + sequencing; frameworks hold sequencing errors
Procedure, shortened: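 Galactose-induced (36–48 hours) yeast carrying a synthetic nanobody display library were exposed to 10% biotinylated, detergent-solubilized Sf9 membrane reagent at 4 °C for 1 hour. FACS followed streptavidin microbead enrichment, using low and high (top ~1%) gates for expression (anti-HA) and reagent binding (streptavidin). Colony PCR, MiSeq 2 × 250 sequencing and CDR-length filtering followed. Labels for polyreactivity reflect the gate of origin.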

Which “polyreactivity (PSR sort gate)” value does the source give for “QVQLVESGGGLVQAGGSLRLSCAASGSTFRYYTMGWYRQAPGKERELVARISWSGGSTYYAYSVKGRFTISRDNAKYTVYLQMNSLKPEDTAVYYCNAVLFYFQTRDYWGQGTQVTVSS” here?
The value was “high polyreactivity”.

Which “polyreactivity (PSR sort gate)” value does the source give for “QVQLVESGGGLVQAGGSLRLSCAASGSTFSANDMGWDRQAPGKEREFVAAITTSDDSTYYADSVKGRYTISRDNAKNTVYLQMNSLKPEDTAVYYCNAYSGYSFFGLCFFYKYDYWGQGTQVTVSS” here?
The value was “low polyreactivity”.

Which “polyreactivity (PSR sort gate)” value does the source give for “QVQLVESGGGLVQAGGSLRLSCAASGSTFSDNAMGGYRQAAGKERELVAAISWTGGSTYADSVKGRFTISRDNAKNTVYLQMNRLKPEDTAVYYCAAGGDFDGNYWGQGTQVTVSS” here?
The value was “low polyreactivity”.

With “QVQLVESGGGLVQAGGSLRLSCAASGSTFSDNAMGWYRQAPGKERELVAAINETGGSTYYADSVKGRFTISRDNAKNTVYLQMNSLKPEDTAVYYCNADIDPYGATYAIEYDYWGQGTQVTVSS” as the sequence, how does the “polyreactivity (PSR sort gate)” value read?
The value was “low polyreactivity”.

For “QVQLVESGGGLVQAGGSLRLSCAASGSTFSDYAMGWYRPEPGQERELVATITSTGDTNYADSVKGRFTISRDNAKNTVYLQMNSLKPEDTAVYYCAAQHKKYGKRGLWNNFGYWGQGTQVSVSS”, which “polyreactivity (PSR sort gate)” value is on record?
Its value is “low polyreactivity”.

For “QVQLVESGGGLVQAGGSLRLSCAASGSTFSEYAMGWYRQAPGKEREFVATITVRGGSTYYADSVKGRFTISRDNAKNTVYLQMNSLKPEDTAVYYCAADGSGYYDWYYYWGQGTQVTVSS”, which “polyreactivity (PSR sort gate)” value is on record?
Its value is “low polyreactivity”.

For “QVQLVESGGGLVQAGGSLRLSCAASGSTFSFYAMGWYRQAPGKERELVAAIRFSGTSTYADSVKGRFTISRDNAKNTVYLQMNSLKPEDTAVYYCAARRAVFYSQRYYRYDYWGQGTQVTVSS”, which “polyreactivity (PSR sort gate)” value is on record?
The value was “high polyreactivity”.

Which “polyreactivity (PSR sort gate)” value does the source give for “QVQLVESGGGLVQAGGSLRLSCAASGSTFSGNAMGWYRQAPGKERELVAAISWSGDTTYYADSVKGRFTISRDNAKNTVYLQMNSLKPEDTAVYYCAVRYYWRRMNYWGQGTQVTVSS” here?
The value was “high polyreactivity”.

Which “polyreactivity (PSR sort gate)” value does the source give for “QVQLVESGGGLVQAGGSLRLSCAASGSTFSGNAMGWYRQAPGKERELVAAITSSGGSTYYADSVKGRFTISRDNAKNTVYLQMNSLKPEDTAVYYCAAKSRRTRRSYYWGQGTQVTVSS” here?
The value was “high polyreactivity”.

Which “polyreactivity (PSR sort gate)” value does the source give for “QVQLVESGGGLVQAGGSLRLSCAASGSTFSGYAKGWYRQAPGTEWELVAAINWNGGRTYYADSVKGRFTISRDNAKNTVYLQMNSLKPEDTAVYYCNAVTRAAYWWTARSTDYDYWGQGTQVTVSS” here?
The value was “high polyreactivity”.

For “QVQLVESGGGLVQAGGSLRLSCAASGSTFSGYAMGWYRQAPGKERELVAAITSDGSTYYADSVKGRFTISRDNAKNTVYLQMNSLKPEDTAVYYCAVGIPYRGRQGYYGYYTYDYWGQGTQVTVSS”, which “polyreactivity (PSR sort gate)” value is on record?
The value was “high polyreactivity”.

Which “polyreactivity (PSR sort gate)” value does the source give for “QVQLVESGGGLVQAGGSLRLSCAASGSTFSGYAMGWYRQAPGKERELVATISGGGSTYYADSVKGRFTISRDNAKNTVYLQMNSLKPEDTAVFYCNAQGYGIFTSSLDYWGQGTQVTVSS” here?
The value was “low polyreactivity”.

Which “polyreactivity (PSR sort gate)” value does the source give for “QVQLVESGGGLVQAGGSLRLSCAASGSTFSHNAMGWYRQAPGKERELVAAISSDGTTYYADSVKGRFTISRDNAKNTVYLQMNSLKPEDTAVYYCNKTRWTQRTSFDYWGQGTQVTVSS” here?
Its value is “low polyreactivity”.

For “QVQLVESGGGLVQAGGSLRLSCAASGSTFSHYAMGWYRQAPGKERELVATITGTGVRTYYADSVKGRFTISRDNAKNTVYLQMNSLKPEDTAVYYCAVPPSKRGAQAQPWMDYWGQGTQVTVSS”, which “polyreactivity (PSR sort gate)” value is on record?
The value was “low polyreactivity”.

Which “polyreactivity (PSR sort gate)” value does the source give for “QVQLVESGGGLVQAGGSLRLSCAASGSTFSINAMGWYRQAPGKERELVAAITWRGVRTYYADSVKGRFTISRDNAKNTVYLQMNSLKPEDPAVYYCAAVPATSYPRRYVYAYYYWGQGTQVTVSS” here?
Its value is “high polyreactivity”.

With “QVQLVESGGGLVQAGGSLRLSCAASGSTFSIYAMGWYRKAPGKERELVAAISTDGGSTNYADSVKGRFTISRDNAKNTVYLQMNILKPEDTAVYYCAADTYWYLSPYDYWGQGTQVTVSS” as the sequence, how does the “polyreactivity (PSR sort gate)” value read?
Its value is “low polyreactivity”.

Which “polyreactivity (PSR sort gate)” value does the source give for “QVQLVESGGGLVQAGGSLRLSCAASGSTFSIYTMGWYRQAPGKERELVAAINTGDGDTYYADSVKGRFTISRDNAKNTFYLQMNSLKPEDTAVYYCAAVYSQLSNLYYYWGQGTQVTVSS” here?
Its value is “low polyreactivity”.

With “QVQLVESGGGLVQAGGSLRLSCAASGSTFSLYALGWYRQAPGKERELVAAITRGGNTYYADSVKGRFTISRDNAKNTVYLQMNSLKPEDTAVYYCNAVFPKTRSYAYGYWGQGTQVTVSS” as the sequence, how does the “polyreactivity (PSR sort gate)” value read?
The value was “high polyreactivity”.

Which “polyreactivity (PSR sort gate)” value does the source give for “QVQLVESGGGLVQAGGSLRLSCAASGSTFSLYAMGWYRQAPGKERELVAAISWSDGSTYYADSVKGRFTISRDNAKNTVYLQMNSLKPEDTAVYYCAAESTVRPYEHSGDYWGQGTQVTVSS” here?
The value was “low polyreactivity”.

For “QVQLVESGGGLVQAGGSLRLSCAASGSTFSLYAMGWYRQAPGKERELVARISYTDGSTYYADSVKGRFTISRDNAKNTVYLQMNSLKPEDTAVYYCAAEAWYSYTLEDYWGQGTQVTVSS”, which “polyreactivity (PSR sort gate)” value is on record?
Its value is “low polyreactivity”.

For “QVQLVESGGGLVQAGGSLRLSCAASGSTFSLYVMGWYRQAPGKEREFVATINWRTVSTYYADSVKGRFTISRDNAKKTVYLQMNSLIPEDTAVYYCNAVSYPPDGTYDYWGQGTQVTVSS”, which “polyreactivity (PSR sort gate)” value is on record?
Its value is “low polyreactivity”.
